Assay results taken from patent US20160228506A1, “Compositions and Formulations for Prevention and Reduction of Tumorigenesis, Cancer Cell Proliferation and Invasion, and Methods of Production and Use Thereof in Cancer Treatment” (PRONUTRIA, INC., priority 2013, published 2016).

Assay: Intact half-life during simulated gastric fluid (SGF) digestion
Settings: SGF pH 1.5, pepsin:polypeptide 1:20 w/w, 37° C.; intact protein

Molecule	SGF Half-life (t½)
SEQID-00343: nutritive polypeptide (protein, Glycine max) MATLIAPSHHSRVEDAEALRNAFKGWGADDKAIIAILGHRNVHQRQEIRKAYEEIYQEDLIKRLESEISGDFERAMYRWMLQPADRDAVLVNVAIKNGTKDYHVIAEIACVLSAEELLAVRRAYHRRYKCSLEEDVAANTTGNLRQLLVGLVTSYRYEGDEINVKFSQTEANVLHESVKEKKGNSEEVIRILTTRSKTQLVATFNRYRDEHGISISKKLLDQTSDDFHKVLHTAIRCINDHKKYYEKVLRNAVKKFGTDEDGLSRVIVTRAEKDLKDIKELYYKRNSVHLEDEVSKETSGDYKKFLLTLLGK	18 s
SEQID-00001: nutritive polypeptide (protein, listed as Gallus gallus) MGSIGAASMEFCFDVFKELKVHHANENIFYCPIAIMSALAMVYLGAKDSTRTQINKVVRFDKLPGFGDSIEAQCGTSVNVHSSLRDILNQITKPNDVYSFSLASRLYAEERYPILPEYLQCVKELYRGGLEPINFQTAADQARELINSWVESQTNGIIRNVLQPSSVDSQTAMVLVNAIVFKGLWEKAFKDEDTQAMPFRVTEQESKPVQMMYQIGLFRVASMASEKMKILELPFASGTMSMLVLLPDEVSGLEQLESIINFEKLTEWTSSNVMEERKIKVYLPRMKMEEKYNLTSVLMAMGITDVFSSSANLSGISSAESLKISQAVHAAHAEINEAGREVVGSAEAGVDAASVSEEFRADHPFLFCIKHIATNAVLFFGRCVSP	300 s
SEQID-00354: nutritive polypeptide (protein, Ovis aries) MSLSNKLTLDKLDVKGKRVVMRVDFNVPMKNNQITNNQRIKAAVPSIKYCLDSGAKSVVLMSHLGRPDGVPMPDKYSLQPVAVELKSLLGKDVLFLKDCVGPEVEKACADPAAGSVILLENLRFHVEEEGKGKDASGNKVKAEPTKIEAFRASLSKLGDVYVNDAFGTAHRAHSSMVGVNLPKKAGGFLMKKELNYFAKALESPERPFLAILGGAKVADKIQLISNMLDKVNEMIIGGGMAFTFLKVLNNMEIGTSLFDEEGSKIVKDLMSKADKNGVKITLPVDFVTADKFDENAKTGQATVASGIPVGWMGLDCGPESSKKYAEAVARAKQIVWNGPVGVFEWEAFARGTKALMDEVVKATSRGCITIIGGGDTATCCAKWNTEDKVSHVSTGGGASLELLEGKVLPGVDALSSV	12 s
SEQID-00346: nutritive polypeptide (protein, Arthrospira platensis NIES-39) MYYDADANLDLLAGKTIAIVGYGSQGHAHALNLKDSGMNVIVGLYPGSKSATKAKDAGLTVYPVDEAAKIADLIMILLPDEVQKTVYKNEIEPNLSEGKTLAFAHGFNIHFGQVVPPENVDVIMVAPKGPGHLVRRTYQEGQGVPCLFAVYQDASGQARDRAMAYAKGIGGTRGGILETTFREETETDLFGEQAVLCGGLSALIKAGFETLVEAGYQPELAYFECLHEVKLIVDLVVEGGLAQMRDSISNTAEYGDYTRGPRVITDATRAEMRKILKEIQTGQFAREFVLENQSGKAGFTAMRRQEAEHPIEEVGHDLRAMFSWLKKKA	12 s
SEQID-00357: nutritive polypeptide (protein, Arthrospira platensis NIES-39) MKPLNRRTKIVATIGPASNSREVLYQMIQAGMNVVRLNFSHGSHEQHTKTVALLKEISQELKTSITLLQDLQGPKIRVGQLPDGGIQLMAGEYITLVPIDQYESKPNTIAIDYLHLGEEAEIGAQVLLDDGLLELKVEEISGNQVKCKIIEGGTLKSRKGVNLPSLTLRLPSLTEKDQQDLEFGISLGVDWVSLSFVRNAEDVRVLKDFLASKNASQISVMAKIEKPQAIANLEEIISECNGLMVARGDLGVEMSPERVPLLQKQIIRLCNQKGIPVITATQMLDSMINNPRPTRAEASDVANAIIDGTDAVMLSGESAVGKYPIRAVEMLAKIAEDVEPEINFINYPPAFNDETHAISEAINTIDKIIDLHCIIAYTCSGYTGQLAAAERPKAPVVALTPNPKVYHRLNLVWGVKPLLLEQEVESFEELINQAQTYLLVRQMASPGDKILIIGGIPSGKAKGTNFIKIHTIG	12 s
SEQID-00284: nutritive polypeptide (protein, listed as Arabidopsis thaliana) KLEHGVHVVSGTPGRVCDMIKRRSLRTRAIKLLILDESDEMLSRGFKDQIYDVYRYLPPDLQVCLVSATLPHEILEMTSKFMTEPVKILVKRDELTLEGIKQFFVAVEKEEWK	60 s
SEQID-00338 (BS): nutritive polypeptide (protein, listed as Saccharomyces cerevisiae, source: /note="strain ATCC 204508 / S288c") MSSSESIRMVLIGPPGAGKGTQAPNLQERFHAAHLATGDMLRSQIAKGTQLGLEAKKIMDQGGLVSDDIMVNMIKDELTNNPACKNGFILDGFPRTIPQAEKLDQMLKEQGTPLEKAIELKVDDELLVARITGRLIHPASGRSYHKIFNPPKEDMKDDVTGEALVQRSDDNADALKKRLAAYHAQTEPIVDFYKKTGIWAGVDASQPPATVWADILNKLGKD	12 s
SEQID-00356: nutritive polypeptide (protein, Glycine max) MATAAEKLSALKSAVAGLNEISENEKNGFISLVGRYLSGEAQHVEWSKIQTPTDEVVVPYDTLAPTPEGSSEVKNLLDKLVVLKLNGGLGTTMGCTGPKSVIEVRDGLTFLDLIVIQIENLNSKYGSNVPLLLMNSFNTHDDTQKIVEKYQNSNIEIHTFNQSQYPRLVVEDFLPLPSKGHTDKDGWYPPGHGDVFPSLLNSGKLDALLSQGKEYVFVANSDNLGAIVDLKILNHLIQNKNEYCMEVTPKTLADVKGGTLISYEGRVQLLEIAQVPDEHVNEFKSIEKFKIFNTNNLWVNLNAVKRLVEADALKMEIIPNPKEVDGIKVLQLETAAGAAIRFFDKAIGINVPRSRFLPVKATSDLLLVQSDLYTLEDGFVIRNKARENPENPSIELGPEFKKVSNFLGRFKSIPSIVELDSLKVAGDVWFGAGVILKGKVSIVSKPGVKLEVPDGVAIVDKEINGPEDL	12 s
SEQID-00236: nutritive polypeptide (protein, listed as Bos taurus) ALQEAHQQTLDDLQAEEDKVNTLTKAKTKLEQQVDDLEGSLEQEKKLRMDLERAKRKLEGDLKLA	600 s
SEQID-00298 (AN): nutritive polypeptide naturally produced in Cow (protein, listed as Bos taurus) MGLSDGEWQLVLNAWGKVEADVAGHGQEVLIRLFTGHPETLEKFDKFKHLKTEAEMKASEDLKKHGNTVLTALGGILKKKGHHEAEVKHLAESHANKHKIPVKYLEFISDAIIHVLHAKHPSDFGADAQAAMSKALELFRNDMAAQYKVLGFHG	18 s
SEQID-00345: nutritive polypeptide (protein, Arthrospira platensis NIES-39) MNTLDLQNQRILVTGGAGFLGKQVIDQLLKAGAKSENISVPRSHNCDLRNLEACQQAAKGQDIIIHLAAHVGGIGLNQVKPAELFYDNLMMGTQLIHSAYQAGVKKFVCVGTICAYPKFTPVPFQEDDLWNGYPEETNAPYGIAKKALLVQLQAYRQQYGFNGIYLLPVNLYGPEDNFNPKSSHVIPALVRKVYEAQQRGDKQLPVWGDGSPSREFLYSTDAARGIVMATQHYDEPDPVNLGTNSEVTIRDLVELICELMEFQGEIVWETDKPNGQPRRCLDTNRAKERFGFVAEVEFRQGLKNTIDWYRQNPDL	48 s

Assay: SGF digest of 168 nutritive polypeptide library, intact protein by LC-MS/MS
Assay type: in vitro ADME
Settings: 168 nutritive polypeptide library SGF digest, LC-MS/MS spectral counts
In short: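 A 168-protein IMAC-purified recombinant library was digested in simulated gastric fluid and the 0 and 10 min samples were profiled by SDS-PAGE fractionation, in-gel trypsin digestion and nanoLC-MS/MS. Percent intact protein at 10 min is the ratio of spectral counts (t10/t0), summed over the peak fraction and two flanking fractions. Filters were 1% FDR and at least two unique peptides.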

Molecule	% Intact Protein at 10 min
SEQID-00638: protein of the 168 nutritive polypeptide library (protein, Arthrospira platensis NIES-39, protein of the 168 nutritive polypeptide library) MKTNELVQRVAEKAKLPKKRVRAILDLAFSAISEEIESGQPVVVRGLGKFTLKEQPARTKTNPETGETTEVPARTVVNFRVIKPSKDKEEADS	0%
SEQID-00642: protein of the 168 nutritive polypeptide library (protein, listed as Saccharomyces cerevisiae, source: /note="strain ATCC 204508 / S288c", protein of the 168 nutritive polypeptide library) MADQENSPLHTVGFDARFPQQNQTKHCWQSYVDYHKCVNMKGEDFAPCKVFWKTYNALCPLDWIEKWDDQREKGIFAGDINSD	75%
SEQID-00645: protein of the 168 nutritive polypeptide library (protein, listed as Saccharomyces cerevisiae, source: /note="strain ATCC 204508 / S288c", protein of the 168 nutritive polypeptide library) MAYTSHLSSKTGLHFGRLSLRSLTAYAPNLMLWGGASMLGLFVFTEGWPKFQDTLYKKIPLLGPTLEDHTPPEDKPN	0%
SEQID-00643: protein of the 168 nutritive polypeptide library (protein, listed as Linum usitatissimum) MVGCGRIGKLLLQRLKPFGCNLLYHDRLKMEPELETQIGAKFEEDVDAMLPKCDVVVINTPLTEKTKGMFDKDRILKMKKG	13.6%
SEQID-00641: protein of the 168 nutritive polypeptide library (protein, listed as Saccharomyces cerevisiae, source: /note="strain ATCC 204508 / S288c", protein of the 168 nutritive polypeptide library) MLPRSALARSLQLQRGVAARFYSEGSTGTPRGSGSEDSFVKRERATEDFFVRQREKEQLRHLKEQLEKQRKKIDSLENKIDSMTK	21.2%
SEQID-00634: protein of the 168 nutritive polypeptide library (protein, listed as Saccharomyces cerevisiae, source: /note="strain ATCC 204508 / S288c", protein of the 168 nutritive polypeptide library) MPPKQQLSKAAKAAAALAGGKKSKKKWSKKSMKDRAQHAVILDQEKYDRILKEVPTYRYVSVSVLVDRLKIGGSLARIALRHLEKEGIIKPISKHSKQAIYTRATASE	36.8%
SEQID-00648: protein of the 168 nutritive polypeptide library (protein, Arthrospira platensis C1, protein of the 168 nutritive polypeptide library) MKRVHLPTDRETGKFRGFAFVEMNTEEEEIHAIEELDGAEWMGREIRVNLARPREDKKPSDRGGRKPRY	39.5%
